{"source": "patent US8357523B2", "about": "“Beta-glucosidase variant enzymes and related polynucleotides” (Codexis, Inc., priority 2009, dated 2013)", "molecules": {"B1": {"name": "29 (protein)", "chain": "STAIAQEGAAPAAILHPEKWPRPATQRLIDPAVEKRVDALLKQLSVEEKVGQVIQGDIGTITPEDLRKYPLGSILAGGNSGPNGDDRAPPKEWLDLADAFYRVSLEKRPGHTPIPVLFGIDAVHGHGNIGSATIFPHNIALGATHDPELLRRIGEVTAVEMAATGIDWTFAPALSVVRDDRWGRTYEGFSEDPEIVAAYSPAIVEGVQGKFGSKDFMAPGRIVASAKHFLADGGTDQGRDQGDARISEDELIRIHNAGYPPAIDAGVLTVMASFSSWQGIKHHGHKQLLTDVLKGQMGFNGFIVGDWNAHDQVPGCTKFNCPTSLIAGLDMYMAADSWKQLYENTLAQVKDGTIPMARLDDAVRRILRVKVLAGLFEKPAPKDRPGLPGLETLGSPEHRAVGREAVRKSLVLLKNDKGTLPLSPKARVLVAGDGADNIGKQSGGWTISWQGTGNRNDEFPGATSILGGIRDAVADAGGSVEFDVAGQYKTKPDVAIVVFGEEPYAEFQGDVETLEYQPDQKQDLALLKKLKDQGIPVVAVFLSGRPMWVNPELNASDAFVAAWLPGTEGGGVADVLFTDKAGKVQHDFAGKLSYSWPRTAAQTTVNRGDADYNPLFAYGYGLTYKDKSKVGTLPEESGVPAEARQNAGIYFRAGALRLPGRFL"}, "B2": {"name": "30 (protein)", "chain": "B1 chain with E155D, P201A"}, "B3": {"name": "31 (protein)", "chain": "B1 chain with A198Q, P201A"}, "B4": {"name": "32 (protein)", "chain": "B1 chain with P201A, I222G"}, "B5": {"name": "33 (protein)", "chain": "B1 chain with V159R, P201A"}, "B6": {"name": "34 (protein)", "chain": "B1 chain with P201A, I222S"}, "B7": {"name": "35 (protein)", "chain": "B1 chain with P201A, A202K"}, "B8": {"name": "36 (protein)", "chain": "B1 chain with A143M, P201A"}, "B9": {"name": "37 (protein)", "chain": "B1 chain with I195L, P201A"}, "B10": {"name": "38 (protein)", "chain": "B1 chain with A173S, P201A"}, "B11": {"name": "39 (protein)", "chain": "B1 chain with A143Q, P201A"}, "B12": {"name": "40 (protein)", "chain": "B1 chain with A173C, P201A"}, "B13": {"name": "41 (protein)", "chain": "B1 chain with P201A, S225C"}}, "experiment": "High throughput cellobiose assay: fold improvement in cellobiase activity of CelA variants over a control enzyme (Tables 2A-2D, 3, 5, 6, 7)", "type": "biochemical", "details": "3.3 g/l cellobiose, 50° C. and pH 6.5; compared to native CelA (SEQ ID NO: 4)", "procedure": "β-glucosidase activity was also determined using a cellobiose assay, which used cellobiose as substrate. In a total volume of 100 μL, 25 μL clear media supernatant containing CelA enzyme was added to 10 g/L cellobiose (Fluka Cat. No. 22150, Sigma-Aldrich, Inc., St. Louis, Mo.) in 100 mM sodium phosphate buffer (pH 6-7) or sodium acetate buffer (pH 5-5.5). The reaction was incubated at 45-70° C. for an appropriate time (25 minutes to overnight depending on the enzyme concentration) while shaking. Glucose production was determined using an enzymatic glucose assay (K-GLUC, Megazyme, Ireland). 10 μl of each reaction was added to 190 μl GOPOD reagent (supplied as part of the K-GLUC assay kit). The reaction was incubated at 45° C. for 20 minutes and the absorbance of the solution was measured at 510 nm. The GOPOD reagent contains 50 mM Potassium phosphate buffer pH7.4, 0.011M p-hydroxybenzoic acid, 0.008% w/v sodium azide, glucose oxidase (>12,000 U/L), peroxidase (>650 U/L) and 80 mg/L 4-aminoantipyrine. The glucose oxidase enzyme in the reagent reacts with any glucose present in the sample and produces hydrogen peroxide which then reacts with the 4-aminoantipyrine to produce a quinoneimine dye in quantities proportionate with the amount of glucose present and can be measured spectrophotometrically at 510 nm. Detectable β-glucosidase activity was observed under high throughput screening conditions (i.e., pH 7, 50° C.).\nPlasmid libraries containing variant CelA genes were transformed into B. megaterium and plated on Luria-Bertani (LB) agar plates containing 3 μg/mL tetracycline with a DM3 regeneration media overlay (400 mM sodium succinate dibasic, pH 7.3, 0.5% casamino acids, 0.5% yeast extract, 0.4% K2HPO4, 0.2% KH2PO4, 20 mM MgCl2, 0.5% glucose and 0.2% BSA). After incubation for at least 18 hours at 30° C., colonies were picked using a Q-bot® robotic colony picker (Genetix USA, Inc., Beaverton, Oreg.) into shallow, 96-well well microtiter plates containing 180 μL, LB and 10 μg/mL tetracycline. Cells were grown overnight at 37° C. with shaking at 200 rpm and 85% humidity. 10 μL of this culture was then transferred into 96-well microtiter plates (deep well) containing 390 μL A5-glucose-xylose medium and 10 μg/mL tetracycline as described in example 2. The plates were then incubated at 37° C. with shaking at 250 rpm and 85% humidity overnight (˜18-24 hours). The deep plates were centrifuged at 4000 rpm for 15 minutes and the clear media supernatant containing the secreted CelA enzyme was used for the high throughput pNPG or cellobiose assay of Example 5.\nThe CelA libraries were screened in high throughput using the cellobiose assay of Example 5 (Substrate: cellobiose; pH: 5-7; temperature: 45-72° C.; time: 2-24 hrs) for the identification of improved variants.\nIn shallow, 96-well microtiter plates 25 μL of media supernatant was added to 75 μL of […] cellobiose in 150 mM sodium acetate buffer pH 5-5.5 or 150 mM sodium phosphate buffer pH6-7. After sealing with aluminum/polypropylene laminate heat seal tape (Velocity 11 (Menlo Park, Calif.), Cat#06643-001), the plates were shaken at 45-65° C. for up to 24 hrs. The plates were centrifuged for 5 minutes at 4000 rpm. In shallow well clear microtiter plates, 10 μL of the reaction mixture was added to 190 μL of GOPOD reagent (as in example 5B) per well. The solutions were incubated at 45° C. for 1 hour and absorbance was measured at 510 nm for the identification of active CelA variants.\nImproved CelA variants were identified from the high throughput screening of various CelA variant libraries as described in Example 7, using the cellobiose assay of Example 5 using 3.3 g/l cellobiose at temperatures from 50°-55° C. at a pH in the range of 5.3-6.5. Tables 2A, 2B, 2C, and 2D and Table 3 depict the improvement in activities of CelA variants encompassed by the invention. The assay conditions are indicated in each table. […]", "note": "Changes are numbered by the printed parent chain.", "data": [{"molecule": "B1", "values": [{"measurement": "Fold improvement over wildtype CelA", "result": "++ (++ = 2.1 to 2.6 fold improvement over native CelA (SEQ ID NO: 4))"}]}, {"molecule": "B2", "values": [{"measurement": "Fold improvement over wildtype CelA", "result": "+ (+ = 1.1 to 2.0 fold improvement over native CelA (SEQ ID NO: 4))"}]}, {"molecule": "B3", "values": [{"measurement": "Fold improvement over wildtype CelA", "result": "+ (+ = 1.1 to 2.0 fold improvement over native CelA (SEQ ID NO: 4))"}]}, {"molecule": "B4", "values": [{"measurement": "Fold improvement over wildtype CelA", "result": "+ (+ = 1.1 to 2.0 fold improvement over native CelA (SEQ ID NO: 4))"}]}, {"molecule": "B5", "values": [{"measurement": "Fold improvement over wildtype CelA", "result": "+ (+ = 1.1 to 2.0 fold improvement over native CelA (SEQ ID NO: 4))"}]}, {"molecule": "B6", "values": [{"measurement": "Fold improvement over wildtype CelA", "result": "+ (+ = 1.1 to 2.0 fold improvement over native CelA (SEQ ID NO: 4))"}]}, {"molecule": "B7", "values": [{"measurement": "Fold improvement over wildtype CelA", "result": "+ (+ = 1.1 to 2.0 fold improvement over native CelA (SEQ ID NO: 4))"}]}, {"molecule": "B8", "values": [{"measurement": "Fold improvement over wildtype CelA", "result": "+ (+ = 1.1 to 2.0 fold improvement over native CelA (SEQ ID NO: 4))"}]}, {"molecule": "B9", "values": [{"measurement": "Fold improvement over wildtype CelA", "result": "+ (+ = 1.1 to 2.0 fold improvement over native CelA (SEQ ID NO: 4))"}]}, {"molecule": "B10", "values": [{"measurement": "Fold improvement over wildtype CelA", "result": "+ (+ = 1.1 to 2.0 fold improvement over native CelA (SEQ ID NO: 4))"}]}, {"molecule": "B11", "values": [{"measurement": "Fold improvement over wildtype CelA", "result": "+ (+ = 1.1 to 2.0 fold improvement over native CelA (SEQ ID NO: 4))"}]}, {"molecule": "B12", "values": [{"measurement": "Fold improvement over wildtype CelA", "result": "++ (++ = 2.1 to 2.6 fold improvement over native CelA (SEQ ID NO: 4))"}]}, {"molecule": "B13", "values": [{"measurement": "Fold improvement over wildtype CelA", "result": "++ (++ = 2.1 to 2.6 fold improvement over native CelA (SEQ ID NO: 4))"}]}]}
